In patent publication US20240277803A1, “NME INHIBITORS AND METHODS OF USING NME INHIBITORS” (Minerva Biotechnologies Corporation, priority 2013, published 2024):

Key:
Human stem cells (iPS) = assay: human iPS stem cell culture in NME7-AB or NM23-H1 dimers; assay type: cell-based
Method: Testing recombinant NME7 for ability to maintain pluripotency and inhibit differentiation. A soluble variant of NME7, NME7-AB, was generated and purified. Human stem cells (iPS cat #SC101a-1, System Biosciences) were grown per the manufacturer's directions in 4 ng/ml bFGF over a layer of mouse fibroblast feeder cells for four passages. These source stem cells were then plated into 6-well cell culture plates (Vita™, Thermo Fisher) that had been coated with 12.5 ug/well of a monoclonal anti-MUC1* antibody, MN-C3. Cells were plated at a density of 300,000 cells per well. The base media was Minimal Stem Cell Media consisting of: 400 ml DME/F12/GlutaMAX I (Invitrogen #10565-018), 100 ml Knockout Serum Replacement (KO-SR, Invitrogen #10828-028), 5 ml 100×MEM Non-essential Amino Acid Solution (Invitrogen#11140-050) and 0.9 ml (0.1 mM) β-mercaptoethanol (55 mM stock, Invitrogen #21985-023). The base media can be any media. In a preferred embodiment, the base media is free of other growth factors and cytokines. To the base media was added either 8 nM of NME7-AB or 8 nM NM23-H1 refolded and purified as stable dimers. Media was changed every 48 hours and due to accelerated growth had to be harvested and passaged at Day 3 post-plating. FIGS. 9 and 10 document the day by day comparison of growth in NM23-H1 dimers to growth in NME7 monomers. […] Cell counts at the first harvest verified that culture in NME7 produced 1.4-times more cells than culture in NM23-H1 dimers.

T47D breast cancer cells = assay: engraftment and growth of T47D cells mixed with NME7-AB in mice (FIG. 51); assay type: in vivo, Immune-compromised mice
From the text: For example, some cancer cells are very difficult to engraft in animals. We increased the engraftment rate of cancer cells by several fold by injecting the animal with human NME7 or NME7-AB. Immune-compromised mice were implanted with T47D breast cancer cells that were mixed 50/50 vol/vol with either Matrigel or NME7-AB. After 10 days, the mice that had received the NME7 mixed cells were additionally injected with NME7-AB every day (FIG. 51). […] Engraftment rates, decreased numbers of required cells and a faster tumor growth rate resulted when NME7-AB was mixed with the cancer cells when implanted and when the mice were injected every 24 or 48 hours after implantation. A range of ratios of cancer cells to NME7 or the injection schedule of NME7 is expected to vary from one mouse strain to another and from one tumor type to another. In an improvement over this method, animals that are transgenic for human NME7 or NME7-AB greatly increase engraftment rates of cancer cells and thus, decrease the number of cells required to develop into a tumor in an animal. This allows growth of primary patient cancer cells in an animal expressing human NME7 or NME7-AB.

[1] = target: T1, MUC1* extra cellular domain peptides (Homo sapiens, UniProt P15941); assay: ELISA sandwich assay, NME7-AB dimerizes MUC1* peptide (FIG. 8); assay type: binding
T1 sequence (P15941 1110-1154): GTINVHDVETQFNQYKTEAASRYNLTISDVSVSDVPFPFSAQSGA
From the text: We made several constructs for expression of a human NME7. One of these constructs expressed well in E. coli, was secreted in soluble form as a monomer and functioned approximately as NME1 dimers did for promoting stem cell growth, pluripotency and inhibition of differentiation. In this construct, the leader sequence “DM10” was omitted from the sequence. This generated a species that was approximately the same molecular weight, 33 kDa, as the secreted form of the protein. The protein was made as a Histidine tagged protein and first purified over an NTA-Ni column, then by FPLC with greater than 98% purity. We call this form of NME7, NME7-AB. […]
The PSMGFR peptide bearing a C-terminal Cysteine (PSMGFR-Cys) was covalently coupled to BSA using Imject Maleimide activated BSA kit (Thermo Fisher). […] After 1h at RT the plate was washed 3× with PBS-T and binding of NME7 was measured at 415 nm using a ABTS solution (Pierce). […]
After 1h at RT the plate was washed 3× with PBS-T and HisTagged PSMGFR peptide (PSMGFR-His) or biotinylated PSMGFR peptide (PSMGFR-biotin), diluted in PBS-T+1% BSA, was added at different concentration. […] After 1h at RT the plate was washed 3× with PBS-T and binding of PSMGFR peptide to NME7 already bound to another PSMGFR peptide (which could not signal by anti-His antibody or by streptavidin) coupled BSA was measured at 415 nm using a ABTS solution (Pierce).

B1: NME7-AB: recombinant human NME7 of NDPK A and B domains without the DM10 leader sequence, ~33 kDa (SEQ ID NO:39) (protein, listed as Homo sapiens)
chain: MEKTLALIKPDAISKAGEIIEIINKAGFTITKLKMMMLSRKEALDFHVDHQSRPFFNELIQFITTGPIIAMEILRDDAICEWKRLLGPANSGVARTDASESIRALFGTDGIRNAAHGPDSFASAAREMELFFPSSGGCGPANTAKFTNCTCCIVKPHAVSEGLLGKILMAIRDAGFEISAMQMFNMDRVNVEEFYEVYKGVVTEYHDMVTEMYSGPCVAMEIQQNNATKTFREFCGPADPEIARHLRPGTLRAIFGKTKIQNAVHCTDLPEDGLLEVQYFFKILDN
modifications: Human NME7-AB
Human stem cells (iPS); 8 nM in minimal media over MN-C3 surface
  stem cell growth, pluripotency and differentiation: fully supported human stem cell growth
Human stem cells (iPS); 8 nM, Day 3 post-plating
  cells produced relative to culture in NM23-H1 dimers (cell counts at first harvest): 1.4 times
T47D breast cancer cells; animal injected with human NME7 or NME7-AB
  engraftment rate of cancer cells: several fold
T47D breast cancer cells; cells mixed 50/50 vol/vol with NME7-AB, then injected every day, tumor promotion
  tumor size and growth rate: larger tumors that grew at an accelerated rate
[1]
  simultaneous binding of two MUC1* extra cellular domain peptides (ELISA): can simultaneously bind two MUC1* extra cellular domain peptides
